The results in this text go back to PMC5861037.

For the series, the target named is DosR (Mycobacterium tuberculosis H37Rv) (UniProt P9WMF9). The series can be described thus: EMSA. The settings on record: 25 mM Tris-HCl pH 8.0, 20 mM KCl, 0.5 mM EDTA, 6 mM MgCl2, 1 mM DTT, 1 ug/mL poly I:C; room temperature, 10 min; 6.5% native Tris-glycine PAGE, silver staining. Background: In EMSA bound probe runs differently from free probe, usually more slowly.

For the sequence “TTGATGCCTCCTAATCGATGGAAACGGATGCCTTTGATCCGACCAGCCCATCGTGGCCAGGGCTAGGGACAGAAGTCCCCGAAGCGCGGGCCATTTGTCCGCGCCCGTCGGTGATCCACTTGGGGACCATTGACCCTGTTGTCTGCCA (double strand) [acr promoter fragment]”, the binding entry is on record as “binds”.
